Laboratory results as given in PMC13638050.

Biological target: H1 stem (recombinant HA stem construct #4900 designed based on H1N1 A/Brisbane/59/2007 HA) (influenza A virus H1N1 A/Brisbane/59/2007)
Test: BLI

somatic CR9114 Fab
Kd: < 0.1 nM
